± gives the uncertainty stated by the source.
Test: self-splicing fitness, log relative to wild type (ln ratio); higher = more splicing; Tetrahymena group I intron in knt gene, E. coli kanamycin selection, DiMSum; sequences stand for … in CUCUCU…GGAGGGAAAAGUUAUCAGGCAUGCACCUGGUAGCUAGUCUUUAAACCAAUAGAUUGCAUCGGUUUAAAAGGCAAGACCGUCAAAUUGCGGGAAAGGGGUCAACAGCCGUUCAGUACCAAGUCUCAGGGGAAACUUUGAGAUGGCCUUGCAAAGGGUAUGGUAAUAAGCUGACGGACAUGGUCCUAACCACGCAGCCAAGUCCUAAGUCAACAGAUCUUCUGUUGAUAUGGAUGCAGUUCACAGACUAAAUGUCGGUCGGGGAAGAUGUAUUCUUCUCAUAAGAUAUAGUCGGACCUCUCCUUAAUGGGAGCUAGCGGAUGAAGUGAUGCAACACUGGAGCCGCUGGGAACUAAUUUGUAUGCGAAAGUAUAUUGAUUAGUUUUGGAGUACUCGUGGUCG
Summary of the method: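 A randomised library covering all eight P1ex-region intron nucleotides was built with the intron in the knt kanamycin-resistance gene on pET-22b(+) and held in E. coli BL21(DE3). Cells were grown overnight at 37°C or 30°C on LB agar, with or without 25 μg/mL kanamycin, plus 100 μg/mL carbenicillin, 50 μM IPTG and 0.2% rhamnose, and pooled colonies were amplicon-sequenced on an Illumina HiSeq 2500. DiMSum fitness is the error-weighted combination of wild-type-normalised replicate fold changes, kanamycin versus none.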

| Sequence | self-splicing fitness (ln) (37 °C) | self-splicing fitness (ln) (30 °C) |
| --- | --- | --- |
| CUUUAGCAAUAUUACGAUUA | -1.92 ± 0.31 | – |
| CUUUAGCAAUAUUACGCAAC | – | -1.73 ± 0.24 |
| CUUUAGCAAUAUUACGCAGA | -2.09 ± 0.3 | – |
| CUUUAGCAAUAUUACGCCCU | -3.23 ± 0.25 | -3.13 ± 0.38 |
| CUUUAGCAAUAUUACGCCUA | -1.73 ± 0.3 | -3.11 ± 0.3 |
| CUUUAGCAAUAUUACGCGGA | -2.81 ± 0.32 | -2.48 ± 0.27 |
| CUUUAGCAAUAUUACGCUUA | -3.35 ± 0.4 | -3.33 ± 0.37 |
| CUUUAGCAAUAUUACGGCAG | -0.552 ± 0.14 | -0.944 ± 0.12 |
| CUUUAGCAAUAUUACGGGGC | -2.54 ± 0.38 | -3.44 ± 0.28 |
| CUUUAGCAAUAUUACGGGGU | -2.94 ± 0.27 | -3.02 ± 0.24 |
| CUUUAGCAAUAUUACGGUAU | -2.4 ± 0.24 | -4.49 ± 0.34 |
| CUUUAGCAAUAUUACGGUGA | -2.08 ± 0.3 | – |
| CUUUAGCAAUAUUACGUAUA | -2.38 ± 0.49 | -3.57 ± 0.27 |
| CUUUAGCAAUAUUACGUCGA | -1.96 ± 0.48 | – |
| CUUUAGCAAUAUUACGUGAC | -1.53 ± 0.29 | -1.42 ± 0.19 |
| CUUUAGCAAUAUUACGUGUG | -0.61 ± 0.08 | -1.6 ± 0.094 |
| CUUUAGCAAUAUUACGUUGA | -3.01 ± 0.35 | – |
| CUUUAGCAAUAUUACGUUUG | -1.5 ± 0.17 | -2.43 ± 0.17 |
| GAAAAGCAAUAUUACGAAUA | -1.19 ± 0.1 | -1.57 ± 0.13 |
| GAAAAGCAAUAUUACGAGGU | -2.92 ± 0.13 | -3.97 ± 0.14 |
| GAAAAGCAAUAUUACGAGUA | -2.44 ± 0.2 | -3.92 ± 0.42 |
| GAAAAGCAAUAUUACGAUAA | -0.197 ± 0.091 | -1.58 ± 0.081 |
| GAAAAGCAAUAUUACGAUGC | -0.503 ± 0.1 | -0.709 ± 0.08 |
| GAAAAGCAAUAUUACGCACG | -0.904 ± 0.12 | -0.543 ± 0.09 |
| GAAAAGCAAUAUUACGCACU | 0.475 ± 0.1 | -0.498 ± 0.098 |

| Sequence | self-splicing fitness (ln) (37 °C) | self-splicing fitness (ln) (30 °C) |
| --- | --- | --- |
| GAAAAGCAAUAUUACGCAUG | -0.337 ± 0.1 | -1.12 ± 0.079 |
| GAAAAGCAAUAUUACGCAUU | -0.376 ± 0.11 | -3.24 ± 0.17 |
| GAAAAGCAAUAUUACGCGUU | -1.18 ± 0.12 | -2.98 ± 0.13 |
| GAAAAGCAAUAUUACGCUAC | -2.37 ± 0.29 | -2.67 ± 0.27 |
| GAAAAGCAAUAUUACGCUAG | -1.57 ± 0.099 | -1.8 ± 0.076 |
| GAAAAGCAAUAUUACGCUGA | -1.65 ± 0.21 | -1.91 ± 0.24 |
| GAAAAGCAAUAUUACGCUGC | -1.61 ± 0.39 | -3.12 ± 0.24 |
| GAAAAGCAAUAUUACGGAAA | -1.55 ± 0.16 | -2.88 ± 0.27 |
| GAAAAGCAAUAUUACGGAGA | -2.19 ± 0.21 | -3.59 ± 0.26 |
| GAAAAGCAAUAUUACGGCUC | 0.342 ± 0.12 | -0.401 ± 0.085 |
| GAAAAGCAAUAUUACGGUAU | -1.69 ± 0.14 | -2.38 ± 0.11 |
| GAAAAGCAAUAUUACGGUCC | -0.588 ± 0.17 | -1.8 ± 0.23 |
| GAAAAGCAAUAUUACGUCUA | 0.0921 ± 0.066 | -0.367 ± 0.053 |
| GAAAAGCAAUAUUACGUGAU | -1.9 ± 0.11 | -2.38 ± 0.087 |
| GAAAAGCAAUAUUACGUGCU | -0.978 ± 0.1 | -1.8 ± 0.098 |
| GAAAAGCAAUAUUACGUUUA | -0.963 ± 0.1 | -1.32 ± 0.11 |
| GAACAGCAAUAUUACGAACU | 0.239 ± 0.09 | -0.795 ± 0.07 |
| GAACAGCAAUAUUACGACGG | -1.81 ± 0.18 | -3.4 ± 0.19 |
| GAACAGCAAUAUUACGACGU | 0.167 ± 0.077 | -0.688 ± 0.064 |
| GAACAGCAAUAUUACGAGCA | -0.521 ± 0.1 | -1.01 ± 0.1 |
| GAACAGCAAUAUUACGAGUC | -1.45 ± 0.094 | -2.08 ± 0.09 |
| GAACAGCAAUAUUACGAUGU | -0.336 ± 0.06 | -1.05 ± 0.043 |
| GAACAGCAAUAUUACGCAGG | -2.7 ± 0.11 | -3.74 ± 0.14 |
| GAACAGCAAUAUUACGCCCU | 0.579 ± 0.37 | -1.69 ± 0.42 |

From the supplement of paper PMC7877785
